Measurements taken from the supplement of paper PMC5998384.

How the values were obtained:
HeLa Kyoto [1] = experiment: solubility in G1/S (NP-40 vs SDS abundance) (log2 ratio); higher = more soluble; settings: cell cycle stage: G1/S
HeLa Kyoto [2] = experiment: solubility change mitosis vs G1/S (difference of NP-40 vs SDS log2 ratios) (log2 ratio difference); higher = more soluble in mitosis
HeLa Kyoto [3] = experiment: thermal stability score vs G1/S (z-score of summed log2 fold changes over temperatures); higher = more thermally stable than in G1/S
[4] = cell cycle stage: early G1 (4.5 h after nocodazole release)
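For solubility change mitosis vs G1/S (difference of NP-40 vs SDS log2 ratios) in this document: synchronized HeLa Kyoto cells (double thymidine block for G1/S, nocodazole release for mitosis), protein amounts in NP-40 versus SDS lysates quantified by mass spectrometry, three biological replicates.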
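For solubility in G1/S (NP-40 vs SDS abundance) in this document: HeLa Kyoto cells arrested at G1/S by double thymidine block, proteins quantified by TMT10plex mass spectrometry in mild NP-40 versus SDS extracts, three biological replicates.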
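For thermal stability score vs G1/S (z-score of summed log2 fold changes over temperatures) in this document: synchronized HeLa Kyoto cells, proteins quantified by TMT10plex mass spectrometry, three biological replicates, mitosis taken 0.5 h after nocodazole release, G1/S directly after double thymidine block.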

WWP2, sequence (chain, as listed by the source): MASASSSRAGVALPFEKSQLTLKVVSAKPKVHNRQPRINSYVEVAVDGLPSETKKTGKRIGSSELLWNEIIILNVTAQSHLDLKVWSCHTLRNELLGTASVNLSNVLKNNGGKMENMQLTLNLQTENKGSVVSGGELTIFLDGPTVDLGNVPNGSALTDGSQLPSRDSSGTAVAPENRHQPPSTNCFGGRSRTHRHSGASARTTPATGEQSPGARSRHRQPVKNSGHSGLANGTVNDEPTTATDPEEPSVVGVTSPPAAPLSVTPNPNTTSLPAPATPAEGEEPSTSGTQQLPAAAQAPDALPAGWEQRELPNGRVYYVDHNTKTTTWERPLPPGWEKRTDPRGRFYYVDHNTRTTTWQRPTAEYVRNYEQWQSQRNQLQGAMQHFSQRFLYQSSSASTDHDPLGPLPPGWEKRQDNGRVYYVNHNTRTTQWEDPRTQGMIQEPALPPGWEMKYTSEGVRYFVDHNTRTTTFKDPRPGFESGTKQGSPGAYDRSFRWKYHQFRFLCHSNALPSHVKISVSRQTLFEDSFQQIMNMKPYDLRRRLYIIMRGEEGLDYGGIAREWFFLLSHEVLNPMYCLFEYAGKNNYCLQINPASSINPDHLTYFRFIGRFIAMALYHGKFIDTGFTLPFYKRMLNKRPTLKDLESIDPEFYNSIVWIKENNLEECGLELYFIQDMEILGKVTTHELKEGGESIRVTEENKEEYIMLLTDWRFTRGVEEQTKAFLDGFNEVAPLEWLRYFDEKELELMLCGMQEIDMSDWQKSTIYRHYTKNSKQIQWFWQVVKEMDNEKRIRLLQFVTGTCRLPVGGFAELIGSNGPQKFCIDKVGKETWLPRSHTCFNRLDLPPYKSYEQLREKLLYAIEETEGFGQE

MTTLDHVIATHQSEWVSFNEEPPFPAHSQGGTEEHLPGLSSSPDQSESSSGENHVVDGGSQDHSHSEQDDSSEKMGLISEAASPPGSPEQPPPDLASAISNWVQFEDDTPWASTSPPHQETAETALPLTMPCWTCPSFDSLGRCPLTSESSWTTHSEDTSSPSFGCSYTDLQLINAEEQTSGQASGADSTDNSSSLQEDEEVEMEAISWQASSPAMNGHPAPPVTSARFPSWVTFDDNEVSCPLPPVTSPLKPNTPPSASVIPDVPYNSMGSFKKRDRPKSTLMNFSKVQKLDISSLNRTPSVTEASPWRATNPFLNETLQDVQPSPINPFSAFFEEQERRSQNSSISSTTGKSQRDSLIVIYQDAISFDDSSKTQSHSDAVEKLKQLQIDDPDHFGSATLPDDDPVAWIELDAHPPGSARSQPRDGWPMMLRIPEKKNIMSSRHWGPIFVKLTDTGYLQLYYEQGLEKPFREFKLEICHEISEPRLQNYDENGRIHSLRIDRVTYKEKKKYQPKPAVAHTAEREQVIKLGTTNYDDFLSFIHAVQDRLMDLPVLSMDLSTVGLNYLEEEITVDVRDEFSGIVSKGDNQILQHHVLTRIHILSFLSGLAECRLGLNDILVKGNEIVLRQDIMPTTTTKWIKLHECRFHGCVDEDVFHNSRVILFNPLDACRFELMRFRTVFAEKTLPFTLRTATSVNGAEVEVQSWLRMSTGFSANRDPLTQVPCENVMIRYPVPSEWVKNFRRESVLGEKSLKAKVNRGASFGSTSVSGSEPVMRVTLGTAKYEHAFNSIVWRINRLPDKNSASGHPHCFFCHLELGSDREVPSRFANHVNVEFSMPTTSASKASVRSISVEDKTDVRKWVNYSAHYSYQVALGSIWLMLPTPFVHPTTLPLLFLLAMLTMFAW [STON2]
solubility in G1/S (log2) (HeLa Kyoto [1]): -0.622 | solubility change mitosis (log2) (HeLa Kyoto [2]): 0.444 | thermal stability score (HeLa Kyoto [3]; [4]): 0.129 | thermal stability score (HeLa Kyoto [3]; cell cycle stage: mitosis): -0.103

MDLPVDEWKSYLLQKWASLPTSVQVTISTAETLRDIFLHSSSLLQPEDELFLKRLSKGYLVGKDSDAPLFYREEGNKKFQEKDYTGAAVLYSKGVSHSRPNTEDMSLCHANRSAALFHLGQYETCLKDINRAQTHGYPERLQPKIMLRKAECLVALGRLQEASQTISDLERNFTATPALADVLPQTLQRNLHRLKMKMQEKDSLTESFPAALAKTLEDAALREENEQLSNASSSIGLCVDPLKGRCLVATKDILPGELLVQEDAFVSVLNPGELPPPHHGLDSKWDTRVTNGDLYCHRCLKHTLATVPCDGCSYAKYCSQECLQQAWELYHRTECPLGGLLLTLGVFCHIALRLTLLVGFEDVRKIITKLCDKISNKDICLPESNNQVKTLNYGLGESEKNGNIVETPIPGCDINGKYENNYNAVFNLLPHTENHSPEHKFLCALCVSALCRQLEAASLQAIPTERIVNSSQLKAAVTPELCPDVTIWGVAMLRHMLQLQCNAQAMTTIQHTGPKGSIVTDSRQVRLATGIFPVISLLNHSCSPNTSVSFISTVATIRASQRIRKGQEILHCYGPHKSRMGVAERQQKLRSQYFFDCACPACQTEAHRMAAGPRWEAFCCNSCGAPMQGDDVLRCGSRSCAESAVSRDHLVSRLQDLQQQVRVAQKLLRDGELERAVQRLSGCQRDAESFLWAEHAVVGEIADGLARACAALGDWQKSATHLQRSLYVVEVRHGPSSVEMGHELFKLAQIFFNGFAVPEALSTIQKAEEVLSLHCGPWDDEIQELQKMKSCLLDLPPTPVGPAL [SMYD4]
solubility in G1/S (log2) (HeLa Kyoto [1]): -0.119 | solubility change mitosis (log2) (HeLa Kyoto [2]): 0.000145 | thermal stability score (HeLa Kyoto [3]; [4]): 0.716 | thermal stability score (HeLa Kyoto [3]; cell cycle stage: mitosis): 0.631

WWP2
solubility in G1/S (log2) (HeLa Kyoto [1]): -0.136 | solubility change mitosis (log2) (HeLa Kyoto [2]): -0.0544 | thermal stability score (HeLa Kyoto [3]; [4]): 0.284 | thermal stability score (HeLa Kyoto [3]; cell cycle stage: mitosis): -1.96

MDSSAVITQISKEEARGPLRGKGDQKSAASQKPRSRGILHSLFCCVCRDDGEALPAHSGAPLLVEENGAIPKQTPVQYLLPEAKAQDSDKICVVIDLDETLVHSSFKPVNNADFIIPVEIDGVVHQVYVLKRPHVDEFLQRMGELFECVLFTASLAKYADPVADLLDKWGAFRARLFRESCVFHRGNYVKDLSRLGRDLRRVLILDNSPASYVFHPDNAVPVASWFDNMSDTELHDLLPFFEQLSRVDDVYSVLRQPRPGS [CTDSP1]
solubility in G1/S (log2) (HeLa Kyoto [1]): -0.148 | solubility change mitosis (log2) (HeLa Kyoto [2]): -0.0207 | thermal stability score (HeLa Kyoto [3]; [4]): 0.748 | thermal stability score (HeLa Kyoto [3]; cell cycle stage: mitosis): 0.982

MPEEAGFPPAKRFRPGSGPPSRAGSFPPGRQVVMLLTAGSGGRGGGGGRRQQPPLAQPSASPYPEAVELQRRSLPIFQARGQLLAQLRNLDNAVLIGETGSGKTTQIPQYLYEGGISRQGIIAVTQPRRVAAISLATRVSDEKRTELGKLVGYTVRFDDVTSEDTRIKFLTDGMLLREAISDSLLRKYSCVILDEAHERTIHTDVLFGVVKAAQKRRKELGKLPLKVIVMSATMDVDLFSQYFNGAPVLYLEGRQHPIQVFYTKQPQNDYLHAALVSVFQIHQEAPSSQDILVFLTGQEEIEAMSKTCRDIAKHLPDGCPAMLVLPLYASLPYAQQLRVFQGAPKGYRKVIISTNIAETSITITGIKYVVDTGMVKAKKYNPDSGLEVLAVQRVSKTQAWQRTGRAGREDSGICYRLYTEDEFEKFDKMTVPEIQRCNLASVMLQLLAMKVPNVLTFDFMSKPSPDHIQAAIAQLDLLGALEHKDDQLTLTPMGRKMAAFPLEPKFAKTILMSPKFHCTEEILTIVSLLSVDSVLHNPPSRREEVQGVRKKFISSEGDHMTLLNIYRTFKNLGGNKDWCKENFVNSKNMTLVAEVRAQLRDICLKMSMPIASSRGDVESVRRCLAHSLFMSTAELQPDGTYATTDTHQPVAIHPSSVLFHCKPACVVYTELLYTNKCYMRDLCVIDAQWLYEAAPEYFRRKLRTARN [DHX33]
solubility in G1/S (log2) (HeLa Kyoto [1]): -1.03 | solubility change mitosis (log2) (HeLa Kyoto [2]): 0.463 | thermal stability score (HeLa Kyoto [3]; [4]): 0.61 | thermal stability score (HeLa Kyoto [3]; cell cycle stage: mitosis): 0.974

CEP170B
solubility in G1/S (log2) (HeLa Kyoto [1]): 0.0802 | solubility change mitosis (log2) (HeLa Kyoto [2]): 0.338 | thermal stability score (HeLa Kyoto [3]; [4]): -3.46e-17 | thermal stability score (HeLa Kyoto [3]; cell cycle stage: mitosis): -1.29e-17
